Results as given in patent publication US20210171647A1 (WUXI BIOLOGICS SHANGHAI, published 2021).
Changes are numbered by the printed parent chain.

Key:
Assay in all cases: ELISA, antibody coated, OX40-ECD.His mutant supernatant; relative to silent alanine substitutions;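 note: captured OX40 mutant protein detected with HRP-labelled anti-His antibody, absorbance read-out, scaled to the mean signal of control mutants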
human OX40-ECD.His P48A = target: T1, human OX40-ECD.His P48A (human, UniProt P43489 29-214)
T1 construct: extracellular domain; not shown: C-terminal His-tag
T1 sequence (looked up): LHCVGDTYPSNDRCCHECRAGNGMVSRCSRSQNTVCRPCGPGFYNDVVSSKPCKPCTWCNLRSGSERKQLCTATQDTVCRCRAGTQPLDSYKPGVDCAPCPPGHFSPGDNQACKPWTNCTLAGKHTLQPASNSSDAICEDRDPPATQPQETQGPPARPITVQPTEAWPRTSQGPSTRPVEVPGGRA

human OX40-ECD.His N160A = target: T2, human OX40-ECD.His N160A (human, UniProt P43489 29-214)
T2 construct: extracellular domain; not shown: C-terminal His-tag
T2 sequence (looked up): T1 sequence (looked up) with A20P, N132A

human OX40-ECD.His L89A = target: T3, human OX40-ECD.His L89A (human, UniProt P43489 29-214)
T3 construct: extracellular domain; not shown: C-terminal His-tag
T3 sequence (looked up): T1 sequence (looked up) with A20P, L61A

human OX40-ECD.His G33A = target: T4, human OX40-ECD.His G33A (human, UniProt P43489 29-214)
T4 construct: extracellular domain; not shown: C-terminal His-tag
T4 sequence (looked up): T1 sequence (looked up) with G5A, A20P

human OX40-ECD.His V32A = target: T5, human OX40-ECD.His V32A (human, UniProt P43489 29-214)
T5 construct: extracellular domain; not shown: C-terminal His-tag
T5 sequence (looked up): T1 sequence (looked up) with V4A, A20P

human OX40-ECD.His A158G = target: T6, human OX40-ECD.His A158G (human, UniProt P43489 29-214)
T6 construct: extracellular domain; not shown: C-terminal His-tag
T6 sequence (looked up): T1 sequence (looked up) with A20P, A130G

human OX40-ECD.His E45A = target: T7, human OX40-ECD.His E45A (human, UniProt P43489 29-214)
T7 construct: extracellular domain; not shown: C-terminal His-tag
T7 sequence (looked up): T1 sequence (looked up) with E17A, A20P

human OX40-ECD.His S159A = target: T8, human OX40-ECD.His S159A (human, UniProt P43489 29-214)
T8 construct: extracellular domain; not shown: C-terminal His-tag
T8 sequence (looked up): T1 sequence (looked up) with A20P, S131A

human OX40-ECD.His F133A = target: T9, human OX40-ECD.His F133A (human, UniProt P43489 29-214)
T9 construct: extracellular domain; not shown: C-terminal His-tag
T9 sequence (looked up): T1 sequence (looked up) with A20P, F105A

human OX40-ECD.His R110A = target: T10, human OX40-ECD.His R110A (human, UniProt P43489 29-214)
T10 construct: extracellular domain; not shown: C-terminal His-tag
T10 sequence (looked up): T1 sequence (looked up) with A20P, R82A

Fold Change (human OX40-ECD.His P48A): 0.981
Fold Change (human OX40-ECD.His N160A): 0.992
Fold Change (human OX40-ECD.His L89A): 0.992
Fold Change (human OX40-ECD.His G33A): 1
Fold Change (human OX40-ECD.His V32A): 1.01
Fold Change (human OX40-ECD.His A158G): 1.01
Fold Change (human OX40-ECD.His E45A): 1.02
Fold Change (human OX40-ECD.His S159A): 0.458
Fold Change (human OX40-ECD.His F133A): 0.627
Fold Change (human OX40-ECD.His R110A): 0.955
B1: 1.134.9-u1-IgG1L (antibody, V domains shown)
VH: QVQLQESGPGLVKPSGTLSLTCAVSGGSISSYNWWSWVRQPPGKGLEWIGEIYHGGNTNYNPSLKSRVTMSVDNSKNQFSLKLSSVTAADTAVYYCARAPGDWGGSPYFDFWGQGTLVTVSS
VL: SSELTQDPAVSVALGQTVRITCQGDNLRTYYASWYQQKPGQAPILLIYGRNKRPSGIPDRFSGSSSGNTASLTITGAQAEDEAAYYCNSRDSSGNPVVFGGGTKLTVL
notes: fully human IgG1, lambda
